This passage reports stoichiometry N, binding result and Kd results from PMC11193727, “Neutralizing antibodies reveal cryptic vulnerabilities and interdomain crosstalk in the porcine deltacoronavirus spike protein” (Nature Communications, 2024).

Assay [1] addresses PDCoV S ectodomain, prefusion S trimer (porcine deltacoronavirus (PDCoV)). Description: cryo-EM structure; PDCoV S ectodomain (10.5 µM protomer) incubated with 22C10 Fab for about 10 min at room temperature.
The target of assay [2] is T1, full length PDCoV S protein expressed on Huh7 cells (porcine deltacoronavirus (PDCoV)).
T1 construct: source: Huh7, transfected (pCAGGS), formaldehyde-fixed cells
T1 chain: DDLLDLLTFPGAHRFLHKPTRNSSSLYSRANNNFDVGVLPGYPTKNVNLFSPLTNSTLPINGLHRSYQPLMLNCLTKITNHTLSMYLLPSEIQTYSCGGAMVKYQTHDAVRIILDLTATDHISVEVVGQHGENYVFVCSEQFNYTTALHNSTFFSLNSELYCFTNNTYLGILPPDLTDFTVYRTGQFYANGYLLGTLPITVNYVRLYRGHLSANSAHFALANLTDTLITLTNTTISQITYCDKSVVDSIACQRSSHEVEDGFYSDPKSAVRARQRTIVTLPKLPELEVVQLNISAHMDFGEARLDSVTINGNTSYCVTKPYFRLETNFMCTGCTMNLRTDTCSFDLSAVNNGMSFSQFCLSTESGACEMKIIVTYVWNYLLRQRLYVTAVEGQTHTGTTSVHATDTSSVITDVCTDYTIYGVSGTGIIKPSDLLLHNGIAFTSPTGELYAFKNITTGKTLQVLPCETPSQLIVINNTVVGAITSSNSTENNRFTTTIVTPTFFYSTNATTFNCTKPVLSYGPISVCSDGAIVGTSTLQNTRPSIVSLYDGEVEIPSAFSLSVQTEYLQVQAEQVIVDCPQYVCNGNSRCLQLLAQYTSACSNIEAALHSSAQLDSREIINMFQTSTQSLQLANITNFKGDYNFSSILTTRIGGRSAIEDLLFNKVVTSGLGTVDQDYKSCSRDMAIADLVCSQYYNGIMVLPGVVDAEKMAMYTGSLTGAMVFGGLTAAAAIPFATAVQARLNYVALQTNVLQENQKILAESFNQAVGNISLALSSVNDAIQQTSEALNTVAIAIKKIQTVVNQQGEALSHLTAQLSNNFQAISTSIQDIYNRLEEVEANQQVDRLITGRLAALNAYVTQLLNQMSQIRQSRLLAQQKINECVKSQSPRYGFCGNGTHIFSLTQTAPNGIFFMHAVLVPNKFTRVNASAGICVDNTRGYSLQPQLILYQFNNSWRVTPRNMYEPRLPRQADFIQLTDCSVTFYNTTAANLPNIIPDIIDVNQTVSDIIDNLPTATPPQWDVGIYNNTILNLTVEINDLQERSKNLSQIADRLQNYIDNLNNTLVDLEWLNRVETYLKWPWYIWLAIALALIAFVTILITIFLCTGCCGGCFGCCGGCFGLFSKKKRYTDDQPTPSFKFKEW
The experiment in a line: immunostaining of cells or tissue. To be noted: one partner purified.

For assay [3], the target named is T2, PDCoV S ectodomain, prefusion S trimer (porcine deltacoronavirus (PDCoV)).
T2 construct: also called prefusion PDCoV S trimer; trimeric S ectodomain; source: HEK-293T, transient (pCAGGS), purified from culture supernatant (streptactin beads); not shown: GCN4 trimerization motif, C-terminal, kept; Strep-tag, C-terminal, kept
T2 chain: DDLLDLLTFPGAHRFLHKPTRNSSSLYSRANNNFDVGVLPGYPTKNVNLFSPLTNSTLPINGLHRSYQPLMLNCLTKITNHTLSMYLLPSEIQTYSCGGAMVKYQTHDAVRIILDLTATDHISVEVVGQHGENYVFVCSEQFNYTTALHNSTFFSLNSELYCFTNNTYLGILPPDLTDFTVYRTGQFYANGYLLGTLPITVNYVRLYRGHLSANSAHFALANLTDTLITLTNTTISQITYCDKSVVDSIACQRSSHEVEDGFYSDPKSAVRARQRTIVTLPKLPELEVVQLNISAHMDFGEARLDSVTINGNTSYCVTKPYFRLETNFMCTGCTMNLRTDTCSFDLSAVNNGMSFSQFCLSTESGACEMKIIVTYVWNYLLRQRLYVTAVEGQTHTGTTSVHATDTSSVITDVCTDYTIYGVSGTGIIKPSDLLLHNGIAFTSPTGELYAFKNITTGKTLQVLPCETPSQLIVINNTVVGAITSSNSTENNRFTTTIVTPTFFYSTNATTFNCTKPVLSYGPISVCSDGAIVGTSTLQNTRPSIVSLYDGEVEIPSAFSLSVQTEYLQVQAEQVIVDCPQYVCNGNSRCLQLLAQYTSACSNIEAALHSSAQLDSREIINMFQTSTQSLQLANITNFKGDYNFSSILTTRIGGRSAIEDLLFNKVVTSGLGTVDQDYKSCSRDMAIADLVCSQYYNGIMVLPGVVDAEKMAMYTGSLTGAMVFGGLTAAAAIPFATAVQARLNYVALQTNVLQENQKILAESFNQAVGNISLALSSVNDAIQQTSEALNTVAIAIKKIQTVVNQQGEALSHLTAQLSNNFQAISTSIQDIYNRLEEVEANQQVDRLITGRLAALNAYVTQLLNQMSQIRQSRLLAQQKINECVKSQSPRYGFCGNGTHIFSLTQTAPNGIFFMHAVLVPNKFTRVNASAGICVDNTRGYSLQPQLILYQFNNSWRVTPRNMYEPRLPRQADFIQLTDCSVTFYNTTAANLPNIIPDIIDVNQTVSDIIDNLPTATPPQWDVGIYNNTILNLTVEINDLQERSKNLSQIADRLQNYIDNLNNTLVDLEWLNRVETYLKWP
Description: BLI; monomeric S1B or untreated trimeric S immobilised on anti-strep mAb-coated protein A biosensor; mAb (50 µg/ml) or APN (100 µg/ml) for 30 min. To be noted: both partners purified. Background: Biolayer interferometry detects binding as a change in optical thickness at a sensor tip.

Assay [4] concerns the target T3, recombinant PDCoV S1 monomer (porcine deltacoronavirus (PDCoV)).
T3 chain: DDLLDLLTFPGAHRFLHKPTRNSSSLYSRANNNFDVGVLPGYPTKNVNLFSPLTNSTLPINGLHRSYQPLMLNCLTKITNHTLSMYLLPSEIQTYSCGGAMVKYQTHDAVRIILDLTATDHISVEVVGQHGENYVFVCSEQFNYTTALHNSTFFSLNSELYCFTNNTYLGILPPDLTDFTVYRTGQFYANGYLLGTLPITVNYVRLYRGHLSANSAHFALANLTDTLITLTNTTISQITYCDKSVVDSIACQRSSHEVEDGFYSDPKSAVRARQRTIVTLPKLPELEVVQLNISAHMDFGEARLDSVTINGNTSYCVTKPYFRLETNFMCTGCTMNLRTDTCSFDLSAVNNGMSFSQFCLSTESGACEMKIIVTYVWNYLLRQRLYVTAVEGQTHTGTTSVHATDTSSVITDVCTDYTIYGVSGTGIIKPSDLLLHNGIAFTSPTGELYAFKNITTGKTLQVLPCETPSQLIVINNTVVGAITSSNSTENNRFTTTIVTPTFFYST
The experiment in a line: BLI.

Assay [5] addresses T4, PDCoV S1 (wild type), ELISA antigen (Porcine deltacoronavirus …, UniProt W8Q9Y7).
T4 construct: source: HEK-293T, purified (Protein A Sepharose)
Description: ELISA. As to conditions: both partners purified. On the technique in general: In an ELISA, binding on a coated surface is turned into a signal by an enzyme label.

The next assay has as its target T5, PDCoV S1A domain (Porcine deltacoronavirus …, UniProt W8Q9Y7).
T5 construct: also called N-terminal domain; NTD; source: HEK-293T, transient (pCAGGS), purified from culture supernatant (streptactin beads); not shown: triple Strep-tag, C-terminal, kept
The experiment in a line: ELISA; purified Strep-tagged S antigens (S trimer, S1B, S1A; 1 µg/ml) coated on Maxisorp plates; human mAbs in fivefold dilutions from 10 µg/ml, RT 1 h; detection with HRP anti-human IgG. As to conditions: both partners purified.

For assay [6], the target named is recombinant PDCoV S1 monomer (Porcine deltacoronavirus …, UniProt W8Q9Y7). The experiment in a line: BLI. To be noted: both partners purified.

Positions count from the first letter of the chain named. In names and notes the source's numbering stands.

In the case of “PDCoV S ectodomain, prefusion S trimer (domain or fragment)”, in assay [1], the stoichiometry N – broadly, the number of molecules, sites or subunits per partner or assembly – was found to be 3.

B1: 22C10 human IgG1 monoclonal antibody (antibody, V domains shown)
VH: EVRLLESGGGLVQPGGSLRLSCAASGFTFSSYAMSWVRQAPGKGLEWVSIITDSGGGTYFADSVKGRFTISRDNSKNTLYLQMNSLRAEDTALYYCVKVGFCYSSTCPFDYWGQGTLVTVSS
VL: ELVMTQSPATLSVSPGERATLSCRASQSVSSDLAWYQQRPGRAPRLLIYDASTRTTGIPARFSGSGSGTEFTLTISSLQSEDFAVYYCHQYNNWLTFGQGTRLEIK
notes: IgG1, kappa; also called mAb 22C10; source: HEK-293T, transient, purified (Protein A Sepharose)
Consider B1, for which the binding result (in assay [2]; in assay [3]; in assay [5]; in the assay with PDCoV S1A domain; in assay [6]) was “binds” throughout. For the same molecule, the Kd – broadly, the concentration at which binding is half-saturated – in assay [4] came out at 46.6 nM.

B2: 42H3 human IgG1 monoclonal antibody (antibody, V domains shown)
VH: QVQLVESGGGVVQPGRSLRLSCAASGFTFSSYDMHWVRQAPGKGLEWVAVIWNDGSNEYYADSVKGRFIISRDNSKNTLYLQMNSLRAEDTAVYYCARRGIIMVRGLLGYWGQGTLVTVSS
VL: DIQMTQSPPSLSASVGDRVTITCRASQGISNYLAWHQQKPGKVPKLLIYTASTLQSGVPSRFSGSGSGTDFTLTISSLQPEDVATYYCQKYNSAPFTFGPGTKVDIK
notes: also called S1B neutralizer
On to B2, for which the dissociation constant (Kd) in assay [4] amounted to 42 nM. Also, the binding result in assay [6] is recorded as “binds”.

B3: 46E6 human IgG1 monoclonal antibody (antibody, V domains shown)
VH: B2 VH with D33A, N53R, Y59F, I69T, N77D
VL: B2 VL
notes: IgG1, kappa; also called S1B neutralizer
B3: the Kd in assay [4] amounted to 19.9 nM. In addition, the binding result in assay [6] is on record as “binds”.
